Columns and labels:
Test in all cases: FACS staining of transfected 293 cells with Fc fusion protein, labeled anti-human IgG Fc detection
[1] = molecular target: T1, ICOS-huFC (extracellular region of murine ICOS fused to a human Fc region from an IgG1 antibody) (murine; human, UniProt Q9WVS0 21-144; P01857 99-330 = IgG part, limits assumed)
T1 construct: extracellular domain;domain: Fc region; Made in transfected cells and purified by Protein A chromatography
Protocol: (§1) Full length versions of each of three murine cDNAs (encoding BTL-II, B7RP-1, CD80) were inserted into a vector appropriate for expression. About 10 μg of each of these constructs, along with an empty vector, were used separately to transfect 293 cells. Two days post transfection, about one million cells from each of the four transfections were stained with each of the fusion proteins described above. Bound protein was detected using a fluorescently labeled antibody against the human IgG Fc region. The stained cells were analyzed by FACS.

[2] = molecular target: T2, CTLA4-huFC (extracellular region of murine CTLA4 fused to a human Fc region of an IgG1 antibody) (murine; human, UniProt P09793 36-161; P01857 99-330 = IgG part, limits assumed)
T2 construct: extracellular domain;domain: Fc region; Made in transfected cells and purified by Protein A chromatography
T2 sequence (P09793 other isoform, or with tags, fused parts or gaps limits assumed): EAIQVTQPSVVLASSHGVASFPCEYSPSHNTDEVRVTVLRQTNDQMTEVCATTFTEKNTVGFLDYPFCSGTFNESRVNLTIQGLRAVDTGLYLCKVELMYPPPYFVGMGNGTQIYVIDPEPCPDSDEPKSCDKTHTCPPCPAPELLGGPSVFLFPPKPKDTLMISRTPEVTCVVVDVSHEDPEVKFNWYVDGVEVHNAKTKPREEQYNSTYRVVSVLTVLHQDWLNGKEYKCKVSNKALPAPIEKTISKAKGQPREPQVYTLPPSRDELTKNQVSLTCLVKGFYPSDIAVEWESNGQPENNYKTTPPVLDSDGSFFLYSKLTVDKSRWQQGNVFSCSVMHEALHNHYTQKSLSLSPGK
Protocol: as §1

[3] = molecular target: T3, PD1-huFC (extracellular region of murine PD-1 fused to a human Fc region of an IgG1 antibody) (murine; human, UniProt Q02242 25-169; P01857 100-330 = IgG part)
T3 construct: extracellular domain;domain: Fc region; Bought from R & D Systems
T3 sequence (Q02242 other isoform, or with tags, fused parts or gaps limits assumed): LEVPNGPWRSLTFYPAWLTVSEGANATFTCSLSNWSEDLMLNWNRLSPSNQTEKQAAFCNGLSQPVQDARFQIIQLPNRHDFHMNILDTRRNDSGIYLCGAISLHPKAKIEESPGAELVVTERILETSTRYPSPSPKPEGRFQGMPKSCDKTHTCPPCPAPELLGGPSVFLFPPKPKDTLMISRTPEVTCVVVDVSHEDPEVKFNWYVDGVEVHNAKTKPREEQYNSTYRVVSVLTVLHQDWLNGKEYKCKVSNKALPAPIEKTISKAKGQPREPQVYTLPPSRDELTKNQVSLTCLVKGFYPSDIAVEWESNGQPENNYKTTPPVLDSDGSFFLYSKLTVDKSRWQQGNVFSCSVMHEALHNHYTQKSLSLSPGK
Protocol: as §1

[4] = molecular target: T4, mCD28-huFC (extracellular region of murine CD28 fused to a human Fc region from an IgG1 antibody) (murine; human, UniProt P31041 20-150; P01857 100-330 = IgG part)
T4 construct: extracellular domain;domain: Fc region; Bought from R & D Systems
T4 sequence (P31041 other isoform, or with tags, fused parts or gaps limits assumed): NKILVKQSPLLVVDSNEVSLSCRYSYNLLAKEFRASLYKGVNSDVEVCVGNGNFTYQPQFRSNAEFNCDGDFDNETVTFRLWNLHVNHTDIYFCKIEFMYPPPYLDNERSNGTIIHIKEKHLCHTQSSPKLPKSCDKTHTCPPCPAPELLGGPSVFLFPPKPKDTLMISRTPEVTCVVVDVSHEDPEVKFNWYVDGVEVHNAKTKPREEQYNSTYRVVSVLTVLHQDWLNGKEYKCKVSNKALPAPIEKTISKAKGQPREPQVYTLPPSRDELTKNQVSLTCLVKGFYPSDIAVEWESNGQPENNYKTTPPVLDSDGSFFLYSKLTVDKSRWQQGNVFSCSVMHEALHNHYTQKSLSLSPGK
Protocol: as §1

T1 sequence (Q9WVS0 other isoform, or with tags, fused parts or gaps limits assumed): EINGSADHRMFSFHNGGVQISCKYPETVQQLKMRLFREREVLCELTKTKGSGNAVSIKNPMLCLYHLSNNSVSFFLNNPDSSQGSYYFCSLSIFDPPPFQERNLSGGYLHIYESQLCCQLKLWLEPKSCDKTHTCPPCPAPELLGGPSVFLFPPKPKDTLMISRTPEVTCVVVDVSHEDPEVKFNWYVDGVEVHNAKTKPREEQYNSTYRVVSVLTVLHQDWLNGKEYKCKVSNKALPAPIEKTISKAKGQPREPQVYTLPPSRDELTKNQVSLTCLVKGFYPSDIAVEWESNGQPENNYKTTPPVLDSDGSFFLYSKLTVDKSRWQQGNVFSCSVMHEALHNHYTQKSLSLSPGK

Binder	binding result [1]	binding result [2]	binding result [3]	binding result [4]
murine B7RP-1 (full length, expressed on transfected 293 cells) (ligand, UniProt Q9JHJ8 44-322, looked up, whole, on cells; also called B7h; B7-H2) ASAETEVGAMVGSNVVLSCIDPHRRHFNLSGLYVYWQIENPEVSVTYYLPYKSPGINVDSSYKNRGHLSLDSMKQGNFSLYLKNVTPQDTQEFTCRVFMNTATELVKILEEVVRLRVAANFSTPVISTSDSSNPGQERTYTCMSKNGYPEPNLYWINTTDNSLIDTALQNNTVYLNKLGLYDVISTLRLPWTSRGDVLCCVENVALHQNITSISQAESFTGNNTKNPQETHNNELKVLVPVLAVLAAAAFVSFIIYRRTRPHRSYTGPKTVQLELTDHA	binds	no binding	no binding	no binding
murine CD80 (full length, expressed on transfected 293 cells) (ligand, UniProt Q00609 38-306, looked up, whole, on cells; also called B7-1) VDEQLSKSVKDKVLLPCRYNSPHEDESEDRIYWQKHDKVVLSVIAGKLKVWPEYKNRTLYDNTTYSLIILGLVLSDRGTYSCVVQKKERGTYEVKHLALVKLSIKADFSTPNITESGNPSADTKRITCFASGGFPKPRFSWLENGRELPGINTTISQDPESELYTISSQLDFNTTRNHTIKCLIKYGDAHVSEDFTWEKPPEDPPDSKNTLVLFGAGFGAVITVVVIVVIIKCFCKHRSCFRRNEASRETNNSLTFGPEEALAEQTVFL	no binding	binds	no binding	binds
murine BTL-II (full length, expressed on transfected 293 cells) (ligand) FRVVGPNLPILAKVGEDALLTCQLLPKRTTAHMEVRWYRSDPAMPVIMYRDGAVVTGLPMEGYGGRAEWMEDSTEEGSVALKIRQVQPSDDGQYWCRFQEGDYWRETSVLLQVAALGSSPNIHVEGLGEGEVQLVCTSRGWFPEPEVHWEGIWGEKLMSFSENHVPGEDGLFYVEDTLMVRNDSVETISCFIYSHGLRETQEATIALSERLQTELVSVSVIGHSQPSPVQVGENIELTCHLSPQTDAQNLEVRWLRSRYYPAVHVYANGTHVAGEQMVEYKGRTSLVTDAIHEGKLTLQIHNARTSDEGQYRCLFGKDGVYQEARVDVQVTAVGSTPRITREVLKDGGMQLRCTSDGWFPRPHVQWRDRDGKTMPSFSEAFQQGSQELFQVETLLLVTNGSMVNVTCSISLPLGQEKTARFPLSDSKIALLWMTLPVVVLPLAMAMDLIKVKRRRRTNEQTHSSNQENNKNDENHRRRLPSDERLR	no binding	no binding	no binding	no binding
